Results on twelve molecules are retold here after US20250003951A1 (OXFORD UNIVERSITY INNOVATION, published 2025).

What all share (assay): cell-based or functional assay
The target in one experiment is T1, OX747-157 (human).
T1 peptide: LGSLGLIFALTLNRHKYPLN

The target of the next experiment is T2, OX747-158 (human).
T2 peptide: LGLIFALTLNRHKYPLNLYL

A further experiment has as its target T3, OX1149-190 (human).
T3 peptide: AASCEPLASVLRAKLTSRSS

A further experiment addresses T4, OX289-073 (human).
T4 peptide: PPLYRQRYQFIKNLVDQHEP

A further experiment concerns the target T5, OX289-074 (human).
T5 peptide: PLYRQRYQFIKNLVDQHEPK

B1: OX747 Peptides 157/158 clone 2 TCR (TCR, V domains shown)
V domain 1: AQKVTQAQTEISVVEKEDVTLDCVYETRDTTYYLFWYKQPPSGELVFLIRRNSFDEQNEISGRYSWNFQKSTSSFNFTITASQVVDSAVYFCALSEATYNTDKLIFGTGTRLQVFP
V domain 2: ETGVTQSPTHLIKTRGQQVTLRCSSQSGHNTVSWYQQALGQGPQFIFQYYREEENGRGNFPPRFSGLQFPNYSSELNVNALELDDSALYLCASSSTGTDYGYTFGSGTRLTVVE
With B1, the “Clone size (percent repertoire), IFNγ+ sorted T cells after peptide stimulation” value (“Clone size (percent repertoire)” below) in the experiment with OX747-157 and in the experiment with OX747-158 was 9.8 % of repertoire throughout.

B2: OX1149 Peptide 190 clone 2 TCR (TCR, V domains shown)
V domain 1: SQQGEEDPQALSIQEGENATMNCSYKTSINNLQWYRQNSGRGLVHLILIRSNEREKHSGRLRVTLDTSKKSSSLLITASRAADTASYFCAAMYSGGGADGLTFGKGTHLIIQP
V domain 2: EPEVTQTPSHQVTQMGQEVILRCVPISNHLYFYWYRQILGQKVEFLVSFYNNEISEKSEIFDDQFSVERPDGSNFTLKIRSTKLEDSAMYFCASSTQGQAYEQYFGPGTRLTVTE
B2: the “Clone size (percent repertoire)” value in the experiment with OX1149-190 is 17.3 % of repertoire.

B3: OX747 Peptides 157/158 clone 1 TCR (TCR)
TCR alpha 1: KNEVEQSPQNLTAQEGEFITINCSYSVGISALHWLQQHPGGGIVSLFMLSSGKKKHGRLIATINIQEKHSSLHITASHPRDSAVYICAVSTGGATNKLIFGTGTLLAVQPNIQNPDPAVYQLRD
TCR alpha 2: KNEVEQSPQNLTAQEGEFITINCSYSVGISALHWLQQHPGGGIVSLFMLSSGKKKHGRLIATINIQEKHSSLHITASHPRDSAVYICAVQEGETSGSRLTFGEGTQLTVNPDIQNPDPAVYQLRD
TCR beta: NAGVTQTPKFQVLKTGQSMTLQCAQDMNHEYMSWYRQDPGMGLRLIHYSVGAGITDQGEVPNGYNVSRSTTEDFPLRLLSAAPSQTSVYFCASSPGFNGNTIYFGEGSWLTVVEDLNKVFPPEVAVFEPS
Regarding B3, the “Clone size (percent repertoire)” value with OX747-157 and with OX747-158 was 15.5 % of repertoire each time.

B4: OX1149 Peptide 190 clone 5 TCR (TCR, V domains shown)
V domain 1: DQQVKQNSPSLSVQEGRISILNCDYTNSMFDYFLWYKKYPAEGPTFLISISSIKDKNEDGRFTVFLNKSAKHLSLHIVPSQPGDSAVYFCAATRAGGTSYGKLTFGQGTILTVHP
V domain 2: SQTIHQWPATLVQPVGSPLSLECTVEGTSNPNLYWYRQAAGRGLQLLFYSVGIGQISSEVPQNLSASRPQDRQFILSSKKLLLSDSGFYLCAWSVLAGVSQYFGPGTRLLVLE
As to B4, in the experiment with OX1149-190, the “Clone size (percent repertoire)” value was 4.8 % of repertoire.

B5: OX747 Peptides 157/158 clone 3 TCR (TCR, V domains shown)
V domain 1: QKEVEQNSGPLSVPEGAIASLNCTYSDRGSQSFFWYRQYSGKSPELIMFIYSNGDKEDGRFTAQLNKASQYVSLLIRDSQPSDSATYLCAGRQTSYDKVIFGPGTSLSVIP
V domain 2: not shown
Consider B5, for which the “Clone size (percent repertoire)” value with OX747-157 and in the experiment with OX747-158 was 8.7 % of repertoire in each case.

B6: OX747 Peptides 157/158 clone 4 TCR (TCR, V domains shown)
V domain 1: AQKVTQAQTEISVVEKEDVTLDCVYETRDTTYYLFWYKQPPSGELVFLIRRNSFDEQNEISGRYSWNFQKSTSSFNFTITASQVVDSAVYFCALSEMNRDDKIIFGKGTRLHILP
V domain 2: NAGVMQNPRHLVRRRGQEARLRCSPMKGHSHVYWYRQLPEEGLKFMVYLQKENIIDESGMPKERFSAEFPKEGPSILRIQQVVRGDSAAYFCASSPTGVSGNTIYFGEGSWLTVVE
Turning to B6, the “Clone size (percent repertoire)” value with OX747-157 and with OX747-158 was 7.9 % of repertoire each time.

B7: OX1149 Peptide 190 clone 1 TCR (TCR, V domains shown)
V domain 1: SQQGEEDPQALSIQEGENATMNCSYKTSINNLQWYRQNSGRGLVHLILIRSNEREKHSGRLRVTLDTSKKSSSLLITASRAADTASYFCATDEAAGNKLTFGGGTRVLVKP
V domain 2: EPEVTQTPSHQVTQMGQEVILRCVPISNHLYFYWYRQILGQKVEFLVSFYNNEISEKSEIFDDQFSVERPDGSNFTLKIRSTKLEDSAMYFCASKRESLATGELFFGEGSRLTVLE
For the molecule B7, the “Clone size (percent repertoire)” value with OX1149-190 was 18.3 % of repertoire.

B8: OX747 Peptides 157/158 clone 5 TCR (TCR, V domains shown)
V domain 1: GQQLNQSPQSMFIQEGEDVSMNCTSSSIFNTWLWYKQDPGEGPVLLIALYKAGELTSNGRLTAQFGITRKDSFLNISASIPSDVGIYFCAGQQKTSGSRLTFGEGTQLTVNP
V domain 2: DGGITQSPKYLFRKEGQNVTLSCEQNLNHDAMYWYRQDPGQGLRLIYYSQIVNDFQKGDIAEGYSVSREKKESFPLTVTSAQKNPTAFYLCASSSPRDRVGQPQHFGDGTRLSILE
Regarding B8, the “Clone size (percent repertoire)” value with OX747-157 and with OX747-158 was 7.7 % of repertoire each time.

B9: OX1149 Peptide 190 clone 4 TCR (TCR, V domains shown)
V domain 1: SQQGEEDPQALSIQEGENATMNCSYKTSINNLQWYRQNSGRGLVHLILIRSNEREKHSGRLRVTLDTSKKSSSLLITASRAADTASYFCATKGGNNRLAFGKGNQVVVIP
V domain 2: EPEVTQTPSHQVTQMGQEVILRCVPISNHLYFYWYRQILGQKVEFLVSFYNNEISEKSEIFDDQFSVERPDGSNFTLKIRSTKLEDSAMYFCASSAWTGETGYTFGSGTRLTVVE
For B9, the “Clone size (percent repertoire)” value with OX1149-190 was 5.7 % of repertoire.

B10: OX289 Peptides 73/74 clone 1 TCR (TCR, V domains shown)
V domain 1: RGEDVEQSLFLSVREGDSSVINCTYTDSSSTYLYWYKQEPGAGLQLLTYIFSNMDMKQDQRLTVLLNKKDKHLSLRIADTQTGDSAIYFCAESPSDGQKLLFARGTMLKVDL
V domain 2: EAQVTQNPRYLITVTGKKLTVTCSQNMNHEYMSWYRQDPGLGLRQIYYSMNVEVTDKGDVPEGYKVSRKEKRNFPLILESPSPNQTSLYFCASSLRQGISPEQFFGPGTRLTVLE
With B10, the “Clone size (percent repertoire)” value in the experiment with OX289-073 and with OX289-074 was 32.3 % of repertoire in each case.

B11: OX289 Peptides 73/74 clone 2 TCR (TCR)
TCR alpha: ELKVEQNPLFLSMQEGKNYTIYCNYSTTSDRLYWYRQDPGKSLESLFVLLSNGAVKQEGRLMASLDTKARLSTLHITAAVHDLSATYFCAVEETSGSRLTFGEGTQLTVNPDIQNPDPAVYQLRD
TCR beta 1: EAQVTQNPRYLITVTGKKLTVTCSQNMNHEYMSWYRQDPGLGLRQIYYSMNVEVTDKGDVPEGYKVSRKEKRNFPLILESPSPNQTSLYFCASSLRQGISPEQFFGPGTRLTVLEDLKNVFPPEVAVFEPS
TCR beta 2: EAQVTQNPRYLITVTGKKLTVTCSQNMNHEYMSWYRQDPGLGLRQIYYSMNVEVTDKGDVPEGYKVSRKEKRNFPLILESPSPNQTSLYFCASSERQGITEAFFGQGTRLTVVEDLNKVFPPEVAVFEPS
Turning to B11, the “Clone size (percent repertoire)” value with OX289-073 and with OX289-074 was 25.6 % of repertoire each time.

B12: OX1149 Peptide 190 clone 3 TCR (TCR, V domains shown)
V domain 1: GENVEQHPSTLSVQEGDSAVIKCTYSDSASNYFPWYKQELGKRPQLIIDIRSNVGEKKDQRIAVTLNKTAKHFSLHITETQPEDSAVYFCAARGGSNYKLTFGKGTLLTVNP
V domain 2: DAGVIQSPRHEVTEMGQEVTLRCKPISGHDYLFWYRQTMMRGLELLIYFNNNVPIDDSGMPEDRFSAKMPNASFSTLKIQPSEPRDSAVYFCASSTGGEQYFGPGTRLTVTE
For the molecule B12, in the experiment with OX1149-190, the “Clone size (percent repertoire)” value is 9 % of repertoire.
